In patent US7220822:

Key:
[1] = target: CD80-Ig (extracellular domain of CD80 fused with the constant region of mouse IgG1 heavy chain) (mouse); assay: SPR (BIACORE), EL CD28 peptide injected over amine-coupled CD80-Ig (1488 RU); slope of ln dR/dt vs t plotted against the peptide concentration, ka is the slope of this plot
[2] = target: CD80-Ig (extracellular domain of CD80 fused with the constant region of mouse IgG1 heavy chain) (mouse); assay: SPR competitive kinetics, peptide 3 × 10^5 nM with 3.2 µM CD28-Ig (competitor) over captured CD80-Ig
[3] = target: CD80-Ig (extracellular domain of CD80 fused with the constant region of mouse IgG1 heavy chain) (mouse); assay: SPR (BIACORE), direct binding to immobilized CD80-Ig, linear regression plot
[4] = target: CD80-Ig (extracellular domain of CD80 fused with the constant region of mouse IgG1 heavy chain) (mouse); assay: SPR competitive kinetics, peptide 0.5 × 10^5 nM with 3.2 µM CD28-Ig (competitor) over captured CD80-Ig
[5] = target: CD80-Ig (extracellular domain of CD80 fused with the constant region of mouse IgG1 heavy chain) (mouse); assay: SPR (BIACORE), peptide over amine-coupled CD80-Ig, 37 C
[6] = target: CD80-Ig (extracellular domain of CD80 fused with the constant region of mouse IgG1 heavy chain) (mouse); assay: SPR direct kinetics, peptide 7.50E+02 nM over immobilized CD80-Ig
[7] = target: CD80-Ig (extracellular domain of CD80 fused with the constant region of mouse IgG1 heavy chain) (mouse); assay: SPR direct kinetics, peptide 6.00E+03 nM over immobilized CD80-Ig
[8] = target: CD80-Ig (extracellular domain of CD80 fused with the constant region of mouse IgG1 heavy chain) (mouse); assay: SPR competitive kinetics, peptide 1 × 10^5 nM with 3.2 µM CD28-Ig (competitor) over captured CD80-Ig
[9] = target: CD80-Ig (extracellular domain of CD80 fused with the constant region of mouse IgG1 heavy chain) (mouse); assay: SPR direct kinetics, peptide 3.00E+03 nM over immobilized CD80-Ig
[10] = target: CD80-Ig (extracellular domain of CD80 fused with the constant region of mouse IgG1 heavy chain) (mouse); assay: SPR competitive kinetics, peptide 0.125 × 10^5 nM with 3.2 µM CD28-Ig (competitor) over captured CD80-Ig
[11] = target: CD80-Ig (extracellular domain of CD80 fused with the constant region of mouse IgG1 heavy chain) (mouse); assay: SPR competitive kinetics, average over peptide concentrations; competitor CD28-Ig
[12] = target: CD80-Ig (extracellular domain of CD80 fused with the constant region of mouse IgG1 heavy chain) (mouse); assay: SPR competitive kinetics, peptide 0.25 × 10^5 nM with 3.2 µM CD28-Ig (competitor) over captured CD80-Ig
[13] = target: CD80-Ig (extracellular domain of CD80 fused with the constant region of mouse IgG1 heavy chain) (mouse); assay: SPR direct kinetics, peptide 1.50E+03 nM over immobilized CD80-Ig
[14] = target: CD80-Ig (extracellular domain of CD80 fused with the constant region of mouse IgG1 heavy chain) (mouse); assay: SPR competitive kinetics, peptide 2 × 10^5 nM with 3.2 µM CD28-Ig (competitor) over captured CD80-Ig
[15] = target: CD80-Ig (extracellular domain of CD80 fused with the constant region of mouse IgG1 heavy chain) (mouse); assay: SPR direct kinetics, peptide 3.75E+02 nM over immobilized CD80-Ig

kon [1]: 113000 M⁻¹ s⁻¹
Kd [2]: 2920 nM
koff [2]: 6.89 s⁻¹
kon [2]: 2.36e+06 M⁻¹ s⁻¹
Kd [3]: 2340 nM
Kd [4]: 5000 nM
koff [4]: 0.316 s⁻¹
kon [4]: 63200 M⁻¹ s⁻¹
maximum response units [5]: 668 RU
koff [6]: 0.274 s⁻¹
kon [6]: 110000 M⁻¹ s⁻¹
koff [7]: 0.273 s⁻¹
kon [7]: 111000 M⁻¹ s⁻¹
Kd [8]: 2540 nM
koff [8]: 0.0803 s⁻¹
kon [8]: 31600 M⁻¹ s⁻¹
koff [9]: 0.214 s⁻¹
kon [9]: 137000 M⁻¹ s⁻¹
Kd [10]: 1380 nM
koff [10]: 0.101 s⁻¹
kon [10]: 73400 M⁻¹ s⁻¹
Kd [11]: 2790 nM
Kd [12]: 3360 nM
koff [12]: 0.0195 s⁻¹
kon [12]: 3360 M⁻¹ s⁻¹
koff [13]: 0.242 s⁻¹
kon [13]: 115000 M⁻¹ s⁻¹
Kd [14]: 1560 nM
koff [14]: 0.0862 s⁻¹
kon [14]: 55100 M⁻¹ s⁻¹
koff [15]: 0.399 s⁻¹
kon [15]: 246000 M⁻¹ s⁻¹
Binder: Ac-KIEFMYPPPYLDNERSNGTI-NH2 [EL-CD28 (end-blocked L CD28 peptide mimetic)]
